Reference: publication PMC7025878

Biological target: GluD1△851 (rat GluD1 receptor truncated C-terminally at residue 851) (rat)
Assay: cryo-EM structure

stoichiometry N: 4
Substance: GluD1△851 (rat GluD1 receptor truncated C-terminally at residue 851)
